Laboratory results from patent US20170183640A1 (WISCONSIN ALUMNI RESEARCH FOUNDATION, published 2017).
Where a chain is given by its changes, count along the chain named. In names and notes the source's numbering stands.

Assays:
[1] = biological target: the molecule itself; assay: ultracentrifugation, self-association (dimerization)
[2] = biological target: the molecule itself; assay: DSG crosslinking, SDS-PAGE (FIG. 7), self-association
Excerpt: (§1) The crosslinking covalently traps Ref in oligomeric states. […] Cys11 is responsible for dimerization of the P1 Ref protein.
In order to determine the role of Cys11, a φW39 R11C variant was constructed and purified. […] The truncation variants' monomeric state was verified by analytical size exclusion (FIG. 9).

[3] = biological target: the molecule itself; assay: gel filtration (Superdex 200), self-association, Example 4
[4] = biological target: the molecule itself; assay: DSG crosslinking, SDS-PAGE, self-association
Excerpt: as §1
Upon amino acid sequence analysis of P1 WT and φW39 WT, we noticed that P1 Ref contains Cys11 while φW39 Ref contains Arg11.

B1: P1 wild type Ref (bacteriophage P1 full length Ref protein) (enzyme)
chain: MKTIEQKIEQCRKWQKAARERAIARQREKLADPVWRESQYQKMRDTLDRRIAKQKERPPASKTRKSAVKIKSRGLKGRTPTAEERRIANALGALPCIACYMHGVISNEVSLHHIAGRTAPGCHKKQLPLCRWHHQHAAPAEVREKYPWLVPVHADGVVGGKKEFTLLNKSEMELLADAYEMANIMH
notes: Full-length native protein purified from E. coli; The dimer is reported to be held by a Cys11 disulfide bond
B1: binds [1].

B2: φW39 R11C Ref (enzyme)
chain: B1 chain with I8L, K13E, V34A, T46S, L47I, R86T, A93T, N107E, A115S
notes: Plasmid pEAW933; Full-length variant
B2: binds [2].

B3: φW39 wild type Ref (φW39 phage full length Ref protein) (enzyme)
chain: B1 chain with I8L, C11R, K13E, V34A, T46S, L47I, R86T, A93T, N107E, A115S
notes: Full-length native protein
In the case of B3, the “apparent molecular mass by gel filtration” value (“apparent molecular mass” below) [3] is reported as 35 kDa.

B4: φW39 ΔN47 Ref (enzyme)
chain: DRRIAKQKERPPASKTRKSAVKIKSRGLKGRTPTAEERTIANALGTLPCIACYMHGVISEEVSLHHISGRTAPGCHKKQLPLCRWHHQHAAPAEVREKYPWLVPVHADGVVGGKKEFTLLNKSEMELLADAYEMANIMH
notes: Plasmid pEAW865; The construct starts with a Met codon from the NdeI site
In the case of B4, the “apparent molecular mass” value [3] is reported as 27.6 kDa.

B5: φW39 ΔN21 Ref (enzyme)
chain: AIARQREKLADPAWRESQYQKMRDSIDRRIAKQKERPPASKTRKSAVKIKSRGLKGRTPTAEERTIANALGTLPCIACYMHGVISEEVSLHHISGRTAPGCHKKQLPLCRWHHQHAAPAEVREKYPWLVPVHADGVVGGKKEFTLLNKSEMELLADAYEMANIMH
notes: Plasmid pEAW886; The construct starts with a Met codon from the NdeI site
In the case of B5, the “apparent molecular mass” value [3] is reported as 33.6 kDa.

B6: P1 ΔN76 Ref (enzyme)
chain: GRTPTAEERRIANALGALPCIACYMHGVISNEVSLHHIAGRTAPGCHKKQLPLCRWHHQHAAPAEVREKYPWLVPVHADGVVGGKKEFTLLNKSEMELLADAYEMANIMH
notes: Purified as in Gruenig et al 2011; The range 77-186 is derived from the name ΔN76
B6: no binding [4].
